One may read the IC50 as the concentration needed to halve the response being measured.

These results are taken from PMC8458281, “Computational modeling and experimental validation of the EPI-X4/CXCR4 complex allows rational design of small peptide antagonists” (Communications Biology, 2021).

B1: WSC02 [human] / CXCR4 wt (transfected 293T cells) [human] (parent complex)
chain 1: IVRWSKKVPCVS
chain 2: MEGISIYTSDNYTEEMGSGDYDSMKEPCFREENANFNKIFLPTIYSIIFLTGIVGNGLVILVMGYQKKLRSMTDKYRLHLSVADLLFVITLPFWAVDAVANWYFGNFLCKAVHVIYTVNLYSSVLILAFISLDRYLAIVHATNSQRPRKLLAEKVVYVGVWIPALLLTIPDFIFANVSEADDRYICDRFYPNDLWVVVFQFQHIMVGLILPGIVILSCYCIIISKLSHSKGHQKRKALKTTVILILAFFACWLPYYIGISIDSFILLEIIKQGCEFENTVHKWISITEALAFFHCCLNPILYAFLGAKFKTSAQHALTSVSRGSSLKILSKGKRGGHSSVSTESESSSFHSS

The test covers variants of B1. Nature of the test: 12G5 antibody competition assay, flow cytometry on transfected 293T cells; 2 h incubation; IC50 set to 1000 µM if above the maximally used concentration; parent: 1e+03 nM; read off a plot. In general terms: A flow cytometer gives signals particle by particle.
As for chain 2 D97N, the IC50 is approximately 380 µM.
The same measure for chain 2 D97S: approximately 320 µM.
The same measure for chain 2 D97Q: approximately 690 µM; for chain 2 D97E: approximately 8 µM; for chain 2 L41A: approximately 1.5 µM.
On to chain 2 L41A, chain 2 V112A, for which the half-maximal inhibitory concentration (IC50) is approximately 4.8 µM.
The same measure for chain 2 V112L: approximately 0.4 µM.
The same measure for chain 2 V112A: approximately 0.6 µM; for chain 2 E277A: approximately 0.75 µM; for chain 2 D187E: approximately 0.42 µM.
